Laboratory results as given in patent US20220089721A1 (Bayer, published 2022).

T1: human CEACAM6 (carcinoembryonic antigen-related cell adhesion molecule 6) (human, UniProt P40199 35-320)
T1 sequence (looked up): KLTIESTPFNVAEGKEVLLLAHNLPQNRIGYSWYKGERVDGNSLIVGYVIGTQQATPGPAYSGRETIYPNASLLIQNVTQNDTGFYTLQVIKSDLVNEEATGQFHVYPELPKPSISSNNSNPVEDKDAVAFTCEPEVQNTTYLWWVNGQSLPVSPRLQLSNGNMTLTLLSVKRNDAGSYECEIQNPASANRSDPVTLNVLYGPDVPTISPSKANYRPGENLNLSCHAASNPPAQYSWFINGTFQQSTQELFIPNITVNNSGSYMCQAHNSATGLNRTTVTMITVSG

B1: anti-CEACAM6 antibody TPP-3310 (antibody, human IgG2, kappa, V domains shown)
VH: QVTLRESGPALVKPTQTLTLTCTFSGFSLSTYGIGVGWIRQPPGKALEWLAHIWWNDNKYYSTSLKTRLTISKDTSKNQVVLTMTNMDPVDTATYYCARISLPYFDYWGQGTTLTVSS
VL: DIQLTQSPSFLSASVGDRVTITCKASQNVGTAVAWYQQKPGKAPKLLIYSASNRYTGVPSRFSGSGSGTEFTLTISSLQPEDFATYYCQQYSSYPLTFGGGTKVEIKR

Assays:
[1] = biological target: T cell immunoglobulin domain and mucin domain 3 (TIM-3) (human) (UniProt Q8TDQ0); assay: cell-based or functional assay
[2] = biological target: T1, human CEACAM6 (carcinoembryonic …); assay: cell-based or functional assay

Row | Molecule | IFN-γ in pg/ml, absolute mean, TC + HCC + 0.5 µg/ml FLU pep + 50 µg/ml antibody (isotype Mab006: 735.0) [1] [pg/mL] | IFNg [pg/ml], isotype corrected, FluM1 T cells + HCC2935, single agent 50 µg/ml, experiment 1 [1] [pg/mL] | IFNg [pg/ml], isotype corrected, FluM1 T cells + HCC2935, single agent 50 µg/ml, experiment 2 [1] [pg/mL] | IFNg [pg/ml], isotype corrected, FluM1 T cells + HCC2935, single agent 50 µg/ml, experiment 3 [1] [pg/mL] | IFNg [pg/ml], isotype corrected, FluM1 T cells + HCC2935, single agent 50 µg/ml, experiment 4 [1] [pg/mL] | IFNg [pg/ml], isotype corrected, FluM1 T cells + HCC2935, single agent 50 µg/ml, experiment 5 [1] [pg/mL] | IFNg [pg/ml], isotype corrected, FluM1 T cells + HCC2935, single agent 50 µg/ml, experiment 6 [1] [pg/mL] | IFNg [pg/ml], isotype corrected, FluM1 T cells + HCC2935, single agent 50 µg/ml, experiment 7 [1] [pg/mL] | IFNg [pg/ml], isotype corrected, FluM1 T cells + HCC2935, single agent 50 µg/ml, mean of n = 7 [1] [pg/mL] | Mean IFNg (pg/ml), isotype corrected, survivin-peptide specific T cells + HCC2935 lung cells, single agent 50 µg/ml, n = 1 [1] [pg/mL] | Mean IFNg (pg/ml), isotype corrected, survivin-peptide specific T cells + KS breast cancer cells, single agent 50 µg/ml, n = 1 [1] [pg/mL] | half-maximal effective concentration (EC50) for activation of T cells in co-culture [2] [µg/mL]
1 | MAB2365 (rIgG2, R&D Jackson Immunoresearch), anti-TIM3 antibody | 925 | 65 | 67.7 | 37 | 247 | 287 | 288 | 278 | 182 | 63.6 | 18.3 | 
2 | B1 |  |  |  |  |  |  |  |  |  |  |  | ~1
